We go through one molecule from patent publication US20240369578A1 (NEURO BIO, published 2024).

This assay has as its target T1, alpha-7 nicotinic receptor (human, UniProt P36544 23-502).
T1 construct: Endogenous receptor in human brain homogenate, captured by biotinylated BTX on SA-donor beads in the AlphaLISA; also called alpha-7 receptor
The experiment in a line: AlphaLISA of T14-alpha-7 complex in human hippocampal tissue lysate (biotinylated BTX on SA-donor beads, anti-T14 on acceptor beads). Here is the method:
Samples were extracted from homogenized human brain tissue using PerkinElmer lysis buffer and the protein concentration determined using the BCA method. For 100 mg tissue homogenization, 1 mL of lysis buffer was used. Five cycles of 40 second pulse, and 10 second breaks, on a shielded homogenizer were used for each sample. Samples were centrifuged at […], 15000 rpm (15 minutes) for supernatants; these were diluted in PerkinElmer Assay buffer and used to measure T14-alpha-7 nicotinic receptor complexes in the presence of NBP14 (concentrations 0.065 μM-900 μM) with AlphaLISA following the manufacturer's protocol. The antibodies were biotinylated BTX on SA-donor beads and anti-rabbit T14 on acceptor beads; results read in an AlphaLISA Reader.
In general terms: In Alpha technology, singlet oxygen from a donor bead excites a nearby acceptor bead.

T1 sequence (P36544 23-502 limits assumed): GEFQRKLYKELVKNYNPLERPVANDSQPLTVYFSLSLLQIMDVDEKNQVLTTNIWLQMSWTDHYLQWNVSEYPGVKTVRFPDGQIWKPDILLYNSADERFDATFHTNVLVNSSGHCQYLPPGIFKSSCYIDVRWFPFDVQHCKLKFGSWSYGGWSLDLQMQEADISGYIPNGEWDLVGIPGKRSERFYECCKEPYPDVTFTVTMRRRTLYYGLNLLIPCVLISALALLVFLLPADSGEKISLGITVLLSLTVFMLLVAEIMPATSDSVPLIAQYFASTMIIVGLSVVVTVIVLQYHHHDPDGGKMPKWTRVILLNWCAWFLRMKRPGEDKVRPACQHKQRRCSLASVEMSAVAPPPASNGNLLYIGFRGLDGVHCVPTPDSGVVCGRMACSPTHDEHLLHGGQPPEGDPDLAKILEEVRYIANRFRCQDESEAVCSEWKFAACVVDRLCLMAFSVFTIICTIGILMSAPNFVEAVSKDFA

B1: T14 peptide (AChE-derived peptide, SEQ ID No:3) (peptide)
peptide: AEFHRWSSYMVHWK
notes: In the assays this was endogenous T14 in human brain tissue, CSF or plasma; Synthetic T14 served as the positive control and standard
For the molecule B1, the binding result is “binds”.
